For one substance, stoichiometry N results are on record in publication PMC7363131.

This test addresses S. venezuelae WhiD (SvWhiD), N-terminally His6-tagged, full length (S. venezuelae). The test is described as follows: native MS; nondenaturing ESI-MS, 250 mM ammonium acetate, pH 7.2; SvWhiD alone (10 μM) or a 2:1 mixture of σ^HrdB4 and SvWhiD.

With “S. venezuelae WhiD (SvWhiD), N-terminally His6-tagged, full length (natural protein)”, the stoichiometry N is 2.

One may read the stoichiometry N as the number of molecules, sites or subunits per partner or assembly.
